Assay results reported in patent US20230257477A1.

Biological target: CD99 antigen (Origene, Sku #TP304058) (UniProt P14209)
Test: ELISA on coated CD99 antigen

Chain of CD99 antigen (Origene, Sku #TP304058) (P14209 23-185 limits assumed): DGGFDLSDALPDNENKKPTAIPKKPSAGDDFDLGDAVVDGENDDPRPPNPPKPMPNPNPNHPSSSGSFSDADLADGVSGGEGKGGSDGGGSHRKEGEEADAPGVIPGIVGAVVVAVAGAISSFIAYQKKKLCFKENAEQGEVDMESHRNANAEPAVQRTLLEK

ELISA absorbance: 0.658
B1: 1H3H9 (antibody, V domains shown)
VH: EVQLQQSGAELVKPGASVKLSCTASGFDIKDTYIHWVKQRPEQGLEWIGRIDPANGDTRYDPEFQGKASLTADTSSNTAYLQFSNLTSEDTAVYYCARRGGLSWGQGTTLTVSS
VL: DIQMTQSPASLSASVGETVTITCRASGNIHNYLAWYQQKQGKSPQLLVYNAKTLADGVPSRFSGSGSGTQYSLKINSLQPEDFGSYYCQHFWSTPWTFGGGTKLEIK
